This assay deals with meMICU1^97-476 (human MICU1 residues 97-476, methylated in vitro by recombinant PRMT1) (human) (UniProt Q9BPX6). Nature of the assay: ITC; IML2^UCP2 (500 μM, syringe) titrated into MICU1 (40 μM, cell); VP-ITC, 25 °C; 20 mM Tris pH 7.0, 500 mM NaCl, 50 mM Arg, 2 mM BME; single site-binding model.
UniProt Q9BPX6, sequence (Q9BPX6 97-476): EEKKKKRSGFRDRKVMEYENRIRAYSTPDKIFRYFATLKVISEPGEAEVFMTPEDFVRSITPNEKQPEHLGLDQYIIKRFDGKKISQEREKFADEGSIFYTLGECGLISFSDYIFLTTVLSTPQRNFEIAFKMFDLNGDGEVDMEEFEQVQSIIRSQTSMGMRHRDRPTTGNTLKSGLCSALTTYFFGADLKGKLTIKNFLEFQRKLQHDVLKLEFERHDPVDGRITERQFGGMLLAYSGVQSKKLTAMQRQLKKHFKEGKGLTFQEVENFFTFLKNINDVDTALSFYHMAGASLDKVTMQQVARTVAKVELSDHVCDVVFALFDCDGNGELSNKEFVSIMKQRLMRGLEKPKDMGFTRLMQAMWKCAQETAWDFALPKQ

For the substance “IML2^UCP2 (chemically synthetized intermembrane loop 2 of UCP2) (from UniProt P55851 147-171) (peptide)”, the Kd is 24.6 µM.

For the origin of these results see PMC5031806.
